Experimental findings from article PMC5632138 (Journal of molecular biology, 2017) are described below.

The target in data set [1] is T1, MED25 ACID Ile521Glu (analyte) (human, UniProt Q71SY5 391-553, Ile521Glu).
T1 sequence (looked up): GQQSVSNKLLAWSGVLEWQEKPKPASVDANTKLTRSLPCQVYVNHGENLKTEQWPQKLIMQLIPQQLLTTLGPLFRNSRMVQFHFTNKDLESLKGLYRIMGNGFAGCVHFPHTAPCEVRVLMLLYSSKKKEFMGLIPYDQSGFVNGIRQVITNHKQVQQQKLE
Kind of data set: BLI. (In general: BLI is a label-free optical method that tracks binding on a fibre tip over time.)

The target of data set [2] is T2, MED25 ACID Tyr487Ser (analyte) (human, UniProt Q71SY5 391-553, Tyr487Ser).
T2 sequence (looked up): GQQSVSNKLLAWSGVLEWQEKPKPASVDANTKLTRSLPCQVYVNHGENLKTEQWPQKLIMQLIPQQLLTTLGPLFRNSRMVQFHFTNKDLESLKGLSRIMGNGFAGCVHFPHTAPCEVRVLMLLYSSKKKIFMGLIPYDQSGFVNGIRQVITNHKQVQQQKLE
The data set is described as follows: BLI.

Data set [3] addresses T3, MED25 ACID Met523Glu (analyte) (human, UniProt Q71SY5 391-553, Met523Glu).
T3 sequence (looked up): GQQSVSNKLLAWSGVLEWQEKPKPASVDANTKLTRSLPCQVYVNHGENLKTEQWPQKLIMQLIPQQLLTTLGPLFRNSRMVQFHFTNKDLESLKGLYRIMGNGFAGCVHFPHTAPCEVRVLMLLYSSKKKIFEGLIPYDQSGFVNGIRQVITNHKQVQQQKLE
Kind of data set: BLI.

Data set [4] has as its target T4, MED25 ACID Gln430Glu (analyte) (human, UniProt Q71SY5 391-553, Gln430Glu).
T4 sequence (looked up): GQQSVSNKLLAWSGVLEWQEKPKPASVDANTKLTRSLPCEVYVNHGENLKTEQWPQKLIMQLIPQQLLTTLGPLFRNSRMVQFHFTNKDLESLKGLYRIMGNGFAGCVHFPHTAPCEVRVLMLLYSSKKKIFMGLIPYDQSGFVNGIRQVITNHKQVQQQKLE
Kind of data set: BLI.

In data set [5] the target is T5, MED25 ACID His474Glu (analyte) (human, UniProt Q71SY5 391-553, His474Glu).
T5 sequence (looked up): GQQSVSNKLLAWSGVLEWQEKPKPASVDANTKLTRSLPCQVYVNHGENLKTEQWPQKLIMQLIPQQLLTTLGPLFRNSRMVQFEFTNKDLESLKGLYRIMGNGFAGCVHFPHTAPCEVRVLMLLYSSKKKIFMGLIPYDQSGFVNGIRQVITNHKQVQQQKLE
The data set is described as follows: BLI.

Data set [6] concerns the target T6, MED25 ACID Lys518Ala/Lys519Ala/Lys520Ala (analyte) (human, UniProt Q71SY5 391-553, Lys518Ala | Lys519Ala | Lys520Ala).
T6 sequence (looked up): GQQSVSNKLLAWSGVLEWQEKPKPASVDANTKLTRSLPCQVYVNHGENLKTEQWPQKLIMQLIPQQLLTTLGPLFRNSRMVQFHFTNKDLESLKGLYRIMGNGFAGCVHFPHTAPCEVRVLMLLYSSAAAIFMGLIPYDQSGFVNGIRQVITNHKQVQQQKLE
The data set is described as follows: BLI.

In data set [7] the target is T7, MED25 ACID Leu514Glu (analyte) (human, UniProt Q71SY5 391-553, Leu514Glu).
T7 sequence (looked up): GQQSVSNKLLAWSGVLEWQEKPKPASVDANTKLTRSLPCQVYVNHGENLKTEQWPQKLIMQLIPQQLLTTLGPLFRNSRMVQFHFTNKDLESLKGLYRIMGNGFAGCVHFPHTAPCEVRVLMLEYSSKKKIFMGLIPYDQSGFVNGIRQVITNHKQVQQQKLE
The data set is described as follows: BLI.

Data set [8] has as its target T8, MED25 ACID Arg466Glu (analyte) (human, UniProt Q71SY5 391-553, Arg466Glu).
T8 sequence (looked up): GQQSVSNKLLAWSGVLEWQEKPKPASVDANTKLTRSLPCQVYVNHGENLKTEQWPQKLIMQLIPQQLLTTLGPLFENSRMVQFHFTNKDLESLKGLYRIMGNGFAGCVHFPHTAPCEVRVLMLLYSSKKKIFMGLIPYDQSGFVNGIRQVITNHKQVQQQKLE
The data set is described as follows: BLI.

Data set [9] has as its target T9, MED25 ACID (residues 391–553), from pET28 (human, UniProt Q71SY5 391-553).
T9 sequence (looked up): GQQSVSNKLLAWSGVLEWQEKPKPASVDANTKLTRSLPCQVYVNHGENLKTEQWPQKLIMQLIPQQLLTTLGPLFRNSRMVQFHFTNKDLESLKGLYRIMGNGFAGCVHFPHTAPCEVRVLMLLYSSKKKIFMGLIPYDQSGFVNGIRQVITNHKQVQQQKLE
The data set is described as follows: NMR titration.

Data set [10] concerns the target ETV4 Leu430Ala (UniProt P43268 1-484, L430A). The data set is described as follows: EMSA. (In EMSA bound probe runs differently from free probe, usually more slowly.)
Data set [11] concerns the target ETV4 Phe428Ala/Phe432Ala (UniProt P43268 1-484, F428A;F432A). The data set is described as follows: EMSA.
The target in data set [12] is ETV4 WT;MED25 ACID (human?;human, UniProt P43268;Q71SY5 1-484;391-553, |). Kind of data set: EMSA.

Broadly, the Kd is a measure of binding affinity in units of concentration. The low end stands for higher affinity, the high end for lower affinity.

Chain of ETV4 Leu430Ala (P43268 whole entry L430A): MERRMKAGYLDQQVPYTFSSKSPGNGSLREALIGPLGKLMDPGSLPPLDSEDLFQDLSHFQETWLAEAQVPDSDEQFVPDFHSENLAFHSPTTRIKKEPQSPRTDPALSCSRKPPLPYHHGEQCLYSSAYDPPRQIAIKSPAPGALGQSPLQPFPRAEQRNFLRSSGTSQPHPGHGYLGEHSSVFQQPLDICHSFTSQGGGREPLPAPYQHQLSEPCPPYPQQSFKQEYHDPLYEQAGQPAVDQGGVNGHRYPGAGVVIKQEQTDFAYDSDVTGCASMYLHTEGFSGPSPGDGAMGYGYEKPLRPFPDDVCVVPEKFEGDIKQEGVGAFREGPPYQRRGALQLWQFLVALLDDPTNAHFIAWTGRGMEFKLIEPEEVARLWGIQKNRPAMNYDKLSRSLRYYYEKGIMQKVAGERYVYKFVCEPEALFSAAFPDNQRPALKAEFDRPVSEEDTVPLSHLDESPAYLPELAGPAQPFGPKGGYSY
Chain of ETV4 WT;MED25 ACID (P43268 whole entry, one chain of several): as the sequence (P43268 whole entry L430A) above, with A430L counted along it
Chain of ETV4 Phe428Ala/Phe432Ala (P43268 whole entry F428A/F432A): as the sequence (P43268 whole entry L430A) above, with F428A, A430L, F432A counted along it

B1: ETV4^337–436 (DNA-binding domain), biotinylated ligand for biolayer interferometry (domain or fragment, UniProt P43268 337-436, looked up)
chain: RRGALQLWQFLVALLDDPTNAHFIAWTGRGMEFKLIEPEEVARLWGIQKNRPAMNYDKLSRSLRYYYEKGIMQKVAGERYVYKFVCEPEALFSLAFPDNQ
modifications: biotin (biotinylated; D-biotin added at the induction point)
Turning to B1, the binding result in data set [1], in data set [2], in data set [3], in data set [4], in data set [5] and in data set [6] was “binds” in each case. The binding result in data set [7] and in [8] was “binds” throughout.

B2: ETV4^337–436 (DNA-binding domain), from pET28 (domain or fragment, UniProt P43268 337-436, looked up)
chain: RRGALQLWQFLVALLDDPTNAHFIAWTGRGMEFKLIEPEEVARLWGIQKNRPAMNYDKLSRSLRYYYEKGIMQKVAGERYVYKFVCEPEALFSLAFPDNQ
Regarding B2, the binding result in data set [9] is recorded as “binds”.

B3: 27-bp consensus ETS duplex (dsDNA)
DNA 1: TCGACGGCCAAGCCGGAAGTGAGTGCC
DNA 2: TCGAGGCACTCACTTCCGGCTTGGCCG
B3: the Kd in [10] amounted to 1.9 ± 0.4 nM; in [11], 3.7 ± 0.8 nM; in data set [12], 2.1 ± 0.5 nM.
